From patent publication US20230135471A1, “UBIQUITIN VARIANTS WITH IMPROVED AFFINITY FOR 53BP1” (Integrated DNA Technologies, Inc., priority 2021, published 2023)

molecular target: 53BP1 fragment (a.a. 1221-1718) fused to an adenylate cyclase fragment (two-hybrid) (UniProt Q12888); test: cell-based or functional assay

Substance	Experiment 1 Average Enrichment	Experiment 1 Rep 1 Enrichment	Experiment 1 Rep 2 Enrichment	Experiment 2 Average Enrichment	Experiment 2 Rep 1 Enrichment	Experiment 2 Rep 2 Enrichment	Percent GFP Positive Rep 1	Percent GFP Positive Rep 2	Percent GFP Positive Rep 3
i53 + E18W two-hybrid fusion (designed binder)	0.18 log2	0.06 log2	0.31 log2	0.75 log2	0.8 log2	0.69 log2	–	–	–
i53 + T14D two-hybrid fusion (designed binder)	2.88 log2	2.9 log2	2.86 log2	1.53 log2	1.65 log2	1.4 log2	–	–	–
i53 + R74Q two-hybrid fusion (designed binder)	2.29 log2	2.6 log2	1.98 log2	1.54 log2	1.56 log2	1.52 log2	–	–	–
i53 + P38T two-hybrid fusion (designed binder)	0.11 log2	0.95 log2	-0.72 log2	0.92 log2	1.27 log2	0.58 log2	–	–	–
i53 + K48M two-hybrid fusion (designed binder)	0.91 log2	0.87 log2	0.94 log2	0.67 log2	0.63 log2	0.7 log2	–	–	–
i53 + S49N two-hybrid fusion (designed binder)	0.04 log2	0.31 log2	-0.23 log2	-0.35 log2	-0.59 log2	-0.11 log2	–	–	–
i53 + P38K two-hybrid fusion (designed binder)	-1.02 log2	-2.14 log2	0.1 log2	0.25 log2	-0.61 log2	1.11 log2	–	–	–
i53 + A28M two-hybrid fusion (designed binder)	0.03 log2	0.49 log2	-0.42 log2	-0.19 log2	-0.51 log2	0.12 log2	–	–	–
i53 + K29L two-hybrid fusion (designed binder)	0.11 log2	0.15 log2	0.07 log2	0.26 log2	0.21 log2	0.3 log2	–	–	–
i53 + K29Q two-hybrid fusion (designed binder)	0.05 log2	-0.21 log2	0.31 log2	-0.04 log2	-0.26 log2	0.17 log2	–	–	–
i53 + H68E two-hybrid fusion (designed binder)	-1.08 log2	-0.69 log2	-1.48 log2	0.1 log2	0.33 log2	-0.13 log2	–	–	–
i53 + K33R two-hybrid fusion (designed binder)	0.42 log2	0.73 log2	0.1 log2	0.37 log2	0.64 log2	0.1 log2	–	–	–
i53 + A28W two-hybrid fusion (designed binder)	0.03 log2	0.48 log2	-0.41 log2	0.12 log2	0.41 log2	-0.17 log2	–	–	–
i53 + K33W two-hybrid fusion (designed binder)	-1.01 log2	-2.04 log2	0.01 log2	0.15 log2	0.35 log2	-0.06 log2	–	–	–
i53 + A28D two-hybrid fusion (designed binder)	0.02 log2	-0.25 log2	0.29 log2	-0.41 log2	-0.24 log2	-0.58 log2	–	–	–
i53 + M1Q two-hybrid fusion (designed binder)	1.31 log2	1.23 log2	1.38 log2	0.68 log2	0.58 log2	0.79 log2	–	–	–
i53 + A28E two-hybrid fusion (designed binder)	0.31 log2	0.23 log2	0.4 log2	0.42 log2	0.53 log2	0.32 log2	–	–	–
i53 + Q31R two-hybrid fusion (designed binder)	0.15 log2	0.66 log2	-0.37 log2	-0.22 log2	0.14 log2	-0.58 log2	–	–	–

Substance	Experiment 1 Average Enrichment	Experiment 1 Rep 1 Enrichment	Experiment 1 Rep 2 Enrichment	Experiment 2 Average Enrichment	Experiment 2 Rep 1 Enrichment	Experiment 2 Rep 2 Enrichment	Percent GFP Positive Rep 1	Percent GFP Positive Rep 2	Percent GFP Positive Rep 3
i53 + L67K two-hybrid fusion (designed binder)	2.01 log2	2.08 log2	1.93 log2	0.89 log2	1.4 log2	0.39 log2	24.2%	11.2%	21.5%
i53 + A28I two-hybrid fusion (designed binder)	0.05 log2	-0.45 log2	0.56 log2	0.05 log2	0.37 log2	-0.28 log2	–	–	–
i53 + K33T two-hybrid fusion (designed binder)	1.77 log2	1.9 log2	1.63 log2	1.41 log2	1.48 log2	1.34 log2	–	–	–
i53 + R54H two-hybrid fusion (designed binder)	0.87 log2	0.78 log2	0.96 log2	0.49 log2	0.43 log2	0.55 log2	–	–	–
i53 + L73M two-hybrid fusion (designed binder)	2.61 log2	2.69 log2	2.52 log2	1.43 log2	1.58 log2	1.28 log2	36.2%	29.2%	39.5%
i53 + N25Q two-hybrid fusion (designed binder)	0.72 log2	0.24 log2	1.21 log2	0.18 log2	0.15 log2	0.22 log2	–	–	–
i53 + P38C two-hybrid fusion (designed binder)	1.52 log2	1.21 log2	1.83 log2	0.52 log2	0.46 log2	0.57 log2	–	–	–
i53 + S57Q two-hybrid fusion (designed binder)	0.07 log2	0.07 log2	0.07 log2	0.14 log2	0.27 log2	0.01 log2	–	–	–
i53 + S49I two-hybrid fusion (designed binder)	0.3 log2	0.04 log2	0.56 log2	0.17 log2	0.6 log2	-0.26 log2	–	–	–
i53 + S57D two-hybrid fusion (designed binder)	1.22 log2	1.05 log2	1.39 log2	0.86 log2	0.89 log2	0.83 log2	–	–	–
i53 + T9E two-hybrid fusion (designed binder)	-0.04 log2	0.37 log2	-0.44 log2	0.33 log2	0.02 log2	0.63 log2	–	–	–
i53 + I13F two-hybrid fusion (designed binder)	0.53 log2	1.04 log2	0.03 log2	-0.09 log2	-0.26 log2	0.07 log2	–	–	–
i53 + N25M two-hybrid fusion (designed binder)	0.5 log2	0.5 log2	0.5 log2	0.45 log2	0.46 log2	0.43 log2	–	–	–
i53 + N25K two-hybrid fusion (designed binder)	0.32 log2	0.11 log2	0.54 log2	0.21 log2	0.17 log2	0.24 log2	–	–	–
i53 + K63V two-hybrid fusion (designed binder)	-0.13 log2	-0.15 log2	-0.11 log2	0.01 log2	0 log2	0.02 log2	–	–	–
i53 + P38V two-hybrid fusion (designed binder)	1.21 log2	1.16 log2	1.26 log2	0.05 log2	0.38 log2	-0.29 log2	–	–	–
i53 + S57H two-hybrid fusion (designed binder)	0.72 log2	0.54 log2	0.9 log2	0.17 log2	-0.04 log2	0.39 log2	–	–	–
